# B1: mRNA-splicing (parent)
# chain: AGUUGCUGCUGGGAGCUCCAGCACAGUGAAAUGGACAGAAGGGCAGAGCAA
# Variants of: B1
# Assay: exon inclusion enrichment index; higher = more inclusion; WT1 exon 5 minigene, HEK293
row,Variant,exon inclusion enrichment index
1,AGUUAAUCUCGGGAGCUCCAGCACAGUGAAAUGGACAGAAGGGCAGAGCAA [G5A C6A G8C C9U U10C],0.618
2,AGUGUACGACGGGAGCUCCAGCACAGUGAAAUGGACAGAAGGGCAGAGCAA [U4G G5U C6A U7C C9A U10C],2.56
3,AGUUAGCUAUGGGAGCUCCAGCACAGUGAAAUGGACAGAAGGGCAGAGCAA [G5A C6G U7C G8U C9A],0.0245
4,AGUGACCACCGGGAGCUCCAGCACAGUGAAAUGGACAGAAGGGCAGAGCAA [U4G G5A U7C G8A U10C],3.1
5,AGUUAGGGAUGGGCGCUCCAGCACAGUGAAAUGGACAGAAGGGCAGAGCAA [G5A C6G U7G C9A A14C],0.000759
6,AGUUAGGGAUGGGUGCUCCAGCACAGUGAAAUGGACAGAAGGGCAGAGCAA [G5A C6G U7G C9A A14U],0.000641
7,AGUUAGGGAUGGGGGCUCCAGCACAGUGAAAUGGACAGAAGGGCAGAGCAA [G5A C6G U7G C9A A14G],0.00241
8,AGUGCGGGAUGGGAGCUCCAGCACAGUGAAAUGGACAGAAGGGCAGAGCAA [U4G G5C C6G U7G C9A],0.248
9,AGUGUACACAGGGAGCUCCAGCACAGUGAAAUGGACAGAAGGGCAGAGCAA [U4G G5U C6A U7C G8A U10A],0.093
10,AGUGAACACAGGGAGCUCCAGCACAGUGAAAUGGACAGAAGGGCAGAGCAA [U4G G5A C6A U7C G8A U10A],0.403
11,AGUGUUUCUCGGGAGCUCCAGCACAGUGAAAUGGACAGAAGGGCAGAGCAA [U4G G5U C6U G8C C9U U10C],0.824
12,AGUUAGAGAUGGGAGCUCCAGCACAGUGAAAUGGACAGAAGGGCAGAGCAA [G5A C6G U7A C9A],0.0497
13,AGUUAAUUUUGGGAGCUCCAGCACAGUGAAAUGGACAGAAGGGCAGAGCAA [G5A C6A G8U C9U],0.0445
14,AGUUAAUUAUGGGAGCUCCAGCACAGUGAAAUGGACAGAAGGGCAGAGCAA [G5A C6A G8U C9A],0.0357
15,AGUUAGUCUCGGGAGCUCCAGCACAGUGAAAUGGACAGAAGGGCAGAGCAA [G5A C6G G8C C9U U10C],0.0763
16,AGUGUCCACCGGGAGCUCCAGCACAGUGAAAUGGACAGAAGGGCAGAGCAA [U4G G5U U7C G8A U10C],2.16
17,AGUUAGGGAUGGGCUCUCCAGCACAGUGAAAUGGACAGAAGGGCAGAGCAA [G5A C6G U7G C9A A14C G15U],0.000655
18,AGUUAGGGAUGGGCACUCCAGCACAGUGAAAUGGACAGAAGGGCAGAGCAA [G5A C6G U7G C9A A14C G15A],0.000979
19,AGUUAGGGAUGGGCCCUCCAGCACAGUGAAAUGGACAGAAGGGCAGAGCAA [G5A C6G U7G C9A A14C G15C],0.000633
20,AGUUAGGGAUGGGGCCUCCAGCACAGUGAAAUGGACAGAAGGGCAGAGCAA [G5A C6G U7G C9A A14G G15C],0.00222
21,AGUUAGGGAUGGGGACUCCAGCACAGUGAAAUGGACAGAAGGGCAGAGCAA [G5A C6G U7G C9A A14G G15A],0.00342
22,AGUUAGGGAUGGGGUCUCCAGCACAGUGAAAUGGACAGAAGGGCAGAGCAA [G5A C6G U7G C9A A14G G15U],0.00301
23,AGUUAAAACCGGGAGCUCCAGCACAGUGAAAUGGACAGAAGGGCAGAGCAA [G5A C6A U7A G8A U10C],0.831
24,AGUUAGAUAUGGGAGCUCCAGCACAGUGAAAUGGACAGAAGGGCAGAGCAA [G5A C6G U7A G8U C9A],0.00788
25,AGUUAGUAAUGGGAGCUCCAGCACAGUGAAAUGGACAGAAGGGCAGAGCAA [G5A C6G G8A C9A],0.00571
26,AGUUAGACAUGGGAGCUCCAGCACAGUGAAAUGGACAGAAGGGCAGAGCAA [G5A C6G U7A G8C C9A],0.0442

row,Variant,exon inclusion enrichment index
1,AGUUAAAGAUGGGAGCUCCAGCACAGUGAAAUGGACAGAAGGGCAGAGCAA [G5A C6A U7A C9A],0.386
2,AGUUAGAGAAGGGAGCUCCAGCACAGUGAAAUGGACAGAAGGGCAGAGCAA [G5A C6G U7A C9A U10A],0.0116
3,AGUGGAAGAAGGGAGCUCCAGCACAGUGAAAUGGACAGAAGGGCAGAGCAA [U4G C6A U7A C9A U10A],0.488
4,AGUUAAUACCGGGAGCUCCAGCACAGUGAAAUGGACAGAAGGGCAGAGCAA [G5A C6A G8A U10C],0.811
5,AGUUAGUGAUGGGAGCUCCAGCACAGUGAAAUGGACAGAAGGGCAGAGCAA [G5A C6G C9A],0.036
6,AGUUAGGGCUGGGAGCUCCAGCACAGUGAAAUGGACAGAAGGGCAGAGCAA [G5A C6G U7G],0.00284
7,AGUUAGUACCGGGAGCUCCAGCACAGUGAAAUGGACAGAAGGGCAGAGCAA [G5A C6G G8A U10C],0.184
8,AGUGGCCACCGGGAGCUCCAGCACAGUGAAAUGGACAGAAGGGCAGAGCAA [U4G U7C G8A U10C],1.53
9,AGUUAGUUAUGGGAGCUCCAGCACAGUGAAAUGGACAGAAGGGCAGAGCAA [G5A C6G G8U C9A],0.00122
10,AGUUAGUUUUGGGAGCUCCAGCACAGUGAAAUGGACAGAAGGGCAGAGCAA [G5A C6G G8U C9U],0.00331
11,AGUGAACGACGGGAGCUCCAGCACAGUGAAAUGGACAGAAGGGCAGAGCAA [U4G G5A C6A U7C C9A U10C],3.42
12,AGUGAUUCUCGGGAGCUCCAGCACAGUGAAAUGGACAGAAGGGCAGAGCAA [U4G G5A C6U G8C C9U U10C],1.22
13,AGUGAGGGAUGGGAGCUCCAGCACAGUGAAAUGGACAGAAGGGCAGAGCAA [U4G G5A C6G U7G C9A],0.00812
14,AGUUAACGACGGGAGCUCCAGCACAGUGAAAUGGACAGAAGGGCAGAGCAA [G5A C6A U7C C9A U10C],2.47
15,AGUUAGUCAUGGGAGCUCCAGCACAGUGAAAUGGACAGAAGGGCAGAGCAA [G5A C6G G8C C9A],0.0264
16,AGUUAGAAAUGGGAGCUCCAGCACAGUGAAAUGGACAGAAGGGCAGAGCAA [G5A C6G U7A G8A C9A],0.0263
17,AGUUAAAUAUGGGAGCUCCAGCACAGUGAAAUGGACAGAAGGGCAGAGCAA [G5A C6A U7A G8U C9A],0.0639
18,AGUGCAAGAAGGGAGCUCCAGCACAGUGAAAUGGACAGAAGGGCAGAGCAA [U4G G5C C6A U7A C9A U10A],0.624
19,AGUGUGGGAUGGGAGCUCCAGCACAGUGAAAUGGACAGAAGGGCAGAGCAA [U4G G5U C6G U7G C9A],0.0442
20,AGUUAAGACCGGGAGCUCCAGCACAGUGAAAUGGACAGAAGGGCAGAGCAA [G5A C6A U7G G8A U10C],1.08
21,AGUUAGUGCUGGGAGCUCCAGCACAGUGAAAUGGACAGAAGGGCAGAGCAA [G5A C6G],0.00371
22,AGUUAAUGCUGGGAGCUCCAGCACAGUGAAAUGGACAGAAGGGCAGAGCAA [G5A C6A],0.0111
23,AGUGCUUCUCGGGAGCUCCAGCACAGUGAAAUGGACAGAAGGGCAGAGCAA [U4G G5C C6U G8C C9U U10C],1.14
24,AGUUAGCAAUGGGAGCUCCAGCACAGUGAAAUGGACAGAAGGGCAGAGCAA [G5A C6G U7C G8A C9A],0.0448
25,AGUGCGCGCCGGGAGCUCCAGCACAGUGAAAUGGACAGAAGGGCAGAGCAA [U4G G5C C6G U7C U10C],0.681

# Reference: the RNAGym collection of RNA variant scans (doi:10.1101/gr.219683.116)
